Article PMC4186791

Experiments:
Test in all cases: two-hybrid; LexA-Ubx variant (pLexA) and B42-partner (pB42) co-transformed into S. cerevisiae EGY48 carrying p8op-LacZ; blue/white colonies on X-gal and liquid β-galactosidase (ONPG) assay after galactose induction at 30°C, reported in Miller units
[1] = molecular target: UbxIVa Pro4 (Drosophila melanogaster)
[2] = molecular target: UbxIb N103 Pro4 (Drosophila melanogaster) (UniProt P83949)
[3] = molecular target: UbxIb Δ103–216 (Drosophila melanogaster) (UniProt P83949)
Chain of UbxIb Δ103–216 (Drosophila melanogaster) (P83949 other isoform, or with tags, fused parts or gaps mutant): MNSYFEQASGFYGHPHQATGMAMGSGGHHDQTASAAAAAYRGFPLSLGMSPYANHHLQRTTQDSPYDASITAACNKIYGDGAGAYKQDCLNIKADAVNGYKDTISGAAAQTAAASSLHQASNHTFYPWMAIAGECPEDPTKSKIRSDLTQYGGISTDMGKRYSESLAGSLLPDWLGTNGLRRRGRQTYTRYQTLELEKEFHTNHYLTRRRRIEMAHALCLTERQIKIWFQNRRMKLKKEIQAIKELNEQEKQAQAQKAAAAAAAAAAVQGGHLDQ

Chain of UbxIb N103 Pro4 (Drosophila melanogaster) (P83949 other isoform, or with tags, fused parts or gaps amino acids 2–102 removed (N103) | A226P | Q233P): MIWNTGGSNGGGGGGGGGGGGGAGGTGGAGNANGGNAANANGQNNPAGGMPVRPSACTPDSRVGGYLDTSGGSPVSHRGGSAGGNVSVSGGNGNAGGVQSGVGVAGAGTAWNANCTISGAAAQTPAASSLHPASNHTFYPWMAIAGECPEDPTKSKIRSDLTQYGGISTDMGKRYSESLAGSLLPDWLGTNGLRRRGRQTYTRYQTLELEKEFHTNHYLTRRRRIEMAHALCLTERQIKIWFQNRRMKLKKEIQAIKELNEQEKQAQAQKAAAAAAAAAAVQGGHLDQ
Chain of Dishevelled (P51140 whole entry): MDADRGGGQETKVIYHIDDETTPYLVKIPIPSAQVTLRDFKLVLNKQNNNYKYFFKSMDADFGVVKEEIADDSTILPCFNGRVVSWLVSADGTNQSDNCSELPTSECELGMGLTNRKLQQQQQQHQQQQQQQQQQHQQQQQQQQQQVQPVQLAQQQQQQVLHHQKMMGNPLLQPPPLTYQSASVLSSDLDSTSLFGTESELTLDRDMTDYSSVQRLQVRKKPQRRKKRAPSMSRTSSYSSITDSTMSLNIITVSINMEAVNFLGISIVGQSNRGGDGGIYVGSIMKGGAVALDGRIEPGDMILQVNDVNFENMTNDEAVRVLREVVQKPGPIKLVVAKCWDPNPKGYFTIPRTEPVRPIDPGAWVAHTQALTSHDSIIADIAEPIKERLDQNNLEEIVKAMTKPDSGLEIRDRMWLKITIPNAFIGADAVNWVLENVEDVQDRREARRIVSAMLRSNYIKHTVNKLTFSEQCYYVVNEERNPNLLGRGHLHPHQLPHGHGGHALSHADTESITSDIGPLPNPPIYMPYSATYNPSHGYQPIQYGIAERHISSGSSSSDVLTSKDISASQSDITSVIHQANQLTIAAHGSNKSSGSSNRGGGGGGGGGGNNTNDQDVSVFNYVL
Chain of Ribosomal protein L22 (P50887 whole entry): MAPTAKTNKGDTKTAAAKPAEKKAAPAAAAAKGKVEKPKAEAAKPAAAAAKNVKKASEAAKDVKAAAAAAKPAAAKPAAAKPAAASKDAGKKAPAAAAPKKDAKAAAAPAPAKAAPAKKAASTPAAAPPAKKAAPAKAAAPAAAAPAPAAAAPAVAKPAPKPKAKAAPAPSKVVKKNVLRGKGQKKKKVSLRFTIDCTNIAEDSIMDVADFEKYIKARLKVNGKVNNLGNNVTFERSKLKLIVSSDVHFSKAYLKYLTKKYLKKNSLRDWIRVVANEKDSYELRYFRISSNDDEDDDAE
Chain of 14-3-3ε (P92177 whole entry): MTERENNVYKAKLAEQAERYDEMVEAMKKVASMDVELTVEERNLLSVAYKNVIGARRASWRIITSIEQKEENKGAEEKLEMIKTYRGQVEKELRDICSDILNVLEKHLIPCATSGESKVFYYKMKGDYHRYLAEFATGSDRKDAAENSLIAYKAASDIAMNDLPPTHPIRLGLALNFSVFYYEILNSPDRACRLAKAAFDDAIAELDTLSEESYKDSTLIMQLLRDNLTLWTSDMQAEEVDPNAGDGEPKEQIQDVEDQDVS

percent of reporter signal lost relative to UbxIb Pro4 [1]	percent of reporter signal lost relative to UbxIb Pro4 [2]	percent of reporter signal lost relative to UbxIb Pro4 [3]	Substance
> 59%			Ribosomal protein L22 (from UniProt P50887 1-299) (natural protein)
> 59%			Dishevelled (from UniProt P51140 1-623) (natural protein)
> 59%			14-3-3ε (from UniProt P92177 1-262) (natural protein)
> 59%	> 59%	> 59%	Apontic (natural protein)
